Measurements published in article PMC12455940.

Target: leader of the capsid (LC) protein from Feline calicivirus (Feline calicivirus, Urbana strain)
Experiment: non-reducing SDS-PAGE and western blot; total protein extracts (RIPA) of FCV-infected CrFK cells, MOI of 5, 1 to 9 hpi; Laemmli buffer without β-ME; detected with anti-LC serum; also cells untreated or treated with 5 µM 16F16

leader of the capsid (LC) protein from Feline calicivirus (natural protein)
stoichiometry N: 2
